Source: patent US20250051443A1 (NATIONAL RESEARCH COUNCIL OF CANADA, published 2025)
Changes are numbered by the printed parent chain.

B1: F332-1C9 (antibody, mouse IgG2a, V domains shown)
VH: QVQLQQPGAELGKPGTSVNLSCKASGYTFTSYWMHWVKQRPGQGLDWIGNINPNSGTTNYNEKFKSKATLTVDKSSSTAYMQLSTLTSEDSAVYYCTRDISGQYYFDYWGQGTSLTVSS
VL: DIVMSQSPSSLAVSAGEKVTMSCKSSQSLLNSRTRKNYLAWYQQKPGQSPKLLIYWASTRESGVPDRFTGSGSGTDFTLIISSVQAEDLAVYYCKQSYSLRTFGGGTKLEIK
notes: Sister clones 1A10, 5H8, 8B11 share the same entries; also called F332-1C9-2; F332-1C9 (1A10, 5H8, 8B11)
B2: F282-2D5 (antibody, V domains shown)
VH: QVQLQQPGTELVKPGASVKLSCKASGYTFTSYWMHWVKQRPGQGLEWIGNINPSNGGTNYNENFKTKATLTVDKSSSTAYMQLSSLTSEDSAVYYCARDRSGQYYFDYWGQGTTLTVSS
VL: B1 VL with I80T, K95I, S99H, K108I
notes: also called F282-2D5-2
B3: F332-4D6 (antibody, mouse IgG2a, V domains shown)
VH: B1 VH with P7S, N19K, M34I, D46E, T57S, S66R, V72A, S91F, I100T, S114T
VL: B1 VL with L52V, I80T, S99H
notes: also called F332-4D6-2; F322-4D6
B4: F332-3E9 (antibody, mouse IgG2a, V domains shown)
VH: QVQLQQPGAELGKPGTSVKLSCKASGYTFTSYWIHWLKQRPGQGLEWIGNINPNGGSINCNEKFTTKATLTIDKSSSTAYMQLSTLTSEDFAVYYCTRDTSGQYYFDYWGQGTTLTVSS
VL: B1 VL with V3M, I80T, K95T, S99H
notes: also called F332-3E9-2; F332-3E9 (12G4)
B5: F332-1E2 (antibody, mouse IgG2a, V domains shown)
VH: B4 VH with L37V, I48V, G55S, C60Y, T65K, T66N, I72V
VL: B1 VL with K18R, I80T, K95I, S99H
notes: Sister clone 8C5 shares the same entries; also called F332-1E2-2; F332-1E2 (8C5)
B6: F332-7C9 (antibody, mouse IgG2a, V domains shown)
VH: QVQLQQSGPELVKPGASVRISCKASGYTFTSHYLHWVKQRPGQGFEWIGWIYPGDGNTRYNEKFKDRATLTADKSSSTAYLHLSSLTSEDSAVYFCARDAGYYFDYWGQGTTLAVSS
VL: B1 VL with P50L, L52V, I80T
notes: also called F332-7C9-2; F332-7C9 (5C7, 7D10)
B7: F332-7C5 (antibody, mouse IgG2a, V domains shown)
VH: QVQLQQPGAELGKPGTSVKLSCKASGYTFTSYWMHWVKQRPGQGLEWIGNINPSSGITNYNERFKNKATLTVDKSSTTAYMQLSILTSEDSAVYYCSRDISGQYYFNFWGQGTTLTVSS
VL: B1 VL with S71T, I80T, S99N
notes: also called F332-7C5-2; F332-7C5 (5E12, 10A8)
B8: F332-5F2 (antibody, mouse IgG2b, V domains shown)
VH: B1 VH with N19K, D46E, S55G, T57D, T58S, Y108F, S118F
VL: B1 VL with V3L, K18Q, Y55F, E61K, D76Y, I80T, K95T, S99N
notes: also called F332-5F2-2; F332-5F2 (6G8, 13A3)
B9: F332-6D7 (antibody, mouse IgG2a, V domains shown)
VH: B1 VH
VL: B1 VL with I80T, T107S
notes: also called F332-6D7-2; F332-6D7 (7G4)

Target: T1, Cynomolgus CD3 (Cynomolgus, UniProt Q95LI5 22-198; Q95LI7 23-181; Q95LI8 22-171)
T1 construct: whole, on cells; also called CD3 on Cynomolgus PBMCs; CD3 on HSC-F Cynomolgus T cell line
Assay: apparent KD (KDapp), flow cytometry titration on fresh cynomolgus PBMCs; second value in brackets, not explained

T1 sequence (Q95LI5 22-198, chain 1 of 3): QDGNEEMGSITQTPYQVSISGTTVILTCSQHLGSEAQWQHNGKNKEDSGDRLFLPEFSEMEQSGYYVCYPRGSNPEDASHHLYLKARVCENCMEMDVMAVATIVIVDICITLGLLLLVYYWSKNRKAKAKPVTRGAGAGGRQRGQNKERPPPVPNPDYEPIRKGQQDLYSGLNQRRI
T1 sequence (Q95LI7 23-181, chain 2 of 3): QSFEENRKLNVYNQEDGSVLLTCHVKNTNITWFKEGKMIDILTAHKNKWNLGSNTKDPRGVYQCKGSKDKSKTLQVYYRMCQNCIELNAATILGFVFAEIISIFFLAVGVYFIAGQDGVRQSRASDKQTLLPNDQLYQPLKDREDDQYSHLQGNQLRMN
T1 sequence (Q95LI8 22-171, chain 3 of 3): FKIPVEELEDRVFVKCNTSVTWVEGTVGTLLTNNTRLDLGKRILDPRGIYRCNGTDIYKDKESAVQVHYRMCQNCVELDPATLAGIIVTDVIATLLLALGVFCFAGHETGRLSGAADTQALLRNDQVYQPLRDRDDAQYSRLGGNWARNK

Row | Kd [nM] | Binder
1 | 0.26 | B1

Target: T1, Cynomolgus CD3
Assay: apparent KD (KDapp), flow cytometry titration on fresh cynomolgus PBMCs
Procedure: (§1) To characterize potential cross-reactivity of the anti-human CD3 mAbs to NHP T cells, dose response flow cytometry titration studies were performed on both freshly obtained Cynomolgus PBMCs (Comparative Medicine and Animal Resources Centre—McGill University) or the Cynomolgus derived T cell line, HSC-F (Non-Human Primate Reagent Resource—NIH). Binding studies on fresh Cynomolgus PBMCs was performed on a subset of anti-CD3 mAbs (FIG. 4) whereas the Herpesvirus saimiri immortalized Cynomolgus T cell line HSC-F was employed for further evaluations (FIGS. 5A to 5C). KDapp values were calculated using a non-linear regression model of one-site binding with Hill slope (GraphPad Prism) and tabulated (Table 3b). Similar KDapp values for anti-CD3 mAb 1E2 obtained from binding to fresh Cynomolgus PBMCs (KDapp=0.28 nM) or the HSC-F T cell line (KDapp=0.39 nM) indicated the HSC-F cell line was a suitable surrogate for ex vivo NHP T cells.
Cynomolgus PBMCs were obtained from fresh ex vivo peripheral blood via density centrifugation and cultured overnight at 37° C./5% CO₂ in the presence of human recombinant IL2 (20 IU/mL; Novartis). Starting from 100 nM, graded doses of the anti-CD3 mAbs were incubated with 100K NHP PBMCs for 0.5 hours at 4° C. in flow staining buffer (SB; PBS/1% BSA/0.01% NaN3) in 96 w V-bottom plates. Following plate washing with SB (150 μL), cell pellets were resuspended in a 5 µg/mL solution of goat (Fab′)₂ anti-mouse IgG (H+L)− APC secondary antibody in SB, incubated at 4° C. (30 min.), washed 1× with SB, and resuspended for flow analysis. The commercial NHP cross-reactive SP34.2 anti-CD3 mAb (BD Biosciences), anti-human OKT-3 IgG2a (Biolegend—data not shown) and non-specific mIgG were employed as controls. 20K live events were acquired on a BD LSRFortessa flow analyzer and mean fluorescence intensities (MFI) calculated after subtraction of secondary antibody alone values. Using GraphPad Prism software, the data were analyzed using a one site specific binding with Hill slope non-linear regression model to calculate KDapp and BMax values (See Table 2).

Row | Kd [nM] | Binder
2 | 0.11 | B2
3 | 0.15 | B3
4 | 0.25 | B1
5 | 0.21 | B4
6 | 0.28 | B5

Target: T1, Cynomolgus CD3
Assay: apparent KD (KDapp), flow cytometry titration on cynomolgus HSC-F T cell line
Procedure: as §1
HSC-F T cells obtained from the Non-Human Primate Reagent Resource (NIH) were maintained in culture in RPMI media containing 20% FBS and 40 IU/mL recombinant human IL2. 100K HSC-F cells in logarithmic cell growth were treated with graded doses of the anti-CD3 mAbs starting at 100 nM in staining buffer (SB; PBS/1% BSA/0.01% NaN3) for 2 hours at 4° C. in 96 w V-bottom plates. Following plate washing with SB, the cell pellets were resuspended with 25 μL of goat (Fab′)₂ anti-mouse IgG (H+L)− APC secondary antibody (final 5 μg/mL), incubated for 30 minutes at 4° C., followed by flow cytometry analysis. The commercial NHP cross-reactive SP34.2 anti-CD3 mAb (BD Biosciences), recombinant anti-human OKT-3 IgG2b (in house produced) and non-specific mIgG were employed as controls. 20K live events were acquired on a BD LSRFortessa flow analyzer and mean fluorescence intensities (MFI) calculated after subtraction of secondary antibody alone values. Using GraphPad Prism software, the data were analyzed using a one site specific binding with Hill slope non-linear regression model to calculate KDapp and BMax values (See Table 2).

Row | Kd [nM] | Binder
7 | 0.36 | B6
8 | 0.37 | B7
9 | 0.4 | B8
10 | 0.39 | B5
11 | 0.27 | B9
